Test system: Saccharomyces cerevisiae
Experiment: transcriptional activation domain activity (GFP:mCherry ratio, weighted mean of sorted bins, harmonized to initial dataset scale) (arbitrary fluorescence ratio units); higher = stronger transcriptional activation
Conditions: beta-estradiol 1 µM; induction time 4 h
Method in brief: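 Yeast diploids with a GFP reporter received barcoded protein tiles, fused to an estradiol-inducible synthetic transcription factor, at the URA3 locus. Cultures were diluted 1:5 into SC holding 1 uM beta-estradiol, incubated 4 hours at 30 °C, sorted into 8 bins on GFP:mCherry ratio, and sequenced for barcodes, with tiles under 50 reads discarded. Activation activity values come from the read-weighted mean of bin median fluorescence, averaged across barcodes and linearly placed on the initial dataset scale.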

Sequence	transcriptional activation domain activity
APDAKTVLPIPELDDAVVESFFSSSTDSTPMFEYENLEDNSKEWTSLFDNDIP	137000
RDKDDRRRHRDRDDQSSRSHRHHRHRDGDSDRDGDGHRHKRSRHSKAEEAKPS	28800
ESEVAASENGKGKKEEEEKKRKKGLASTRQRNAAGKQSSSSKEEGKGARAYRS	26100
MPSCFCFIPEFTALSLPPLCSLFWFRLCTWLFLRMLCTRIYLFCSWFFCLTYF	56400
SKNDSASDEEEEGDDLPSAYCTVILNHQKVFKTRTKPKNSKPFFNAGCERFIP	57400
IYFTFRILLYAIWCALAKVHRWNKTTLWNTLCKYLSRLVAATKSRTKTHAPWL	49300
NKWLNVIQKFLKELDGRDKLMKTIQYFIKILLHYKMARAKHWSSLTSHLSMTR	66400
ASNTTEVQLFINGSYVLLDTVCTRVLLYPDQILSNFRREDIALLCLQFWLFFI	28700
GGALSHHEIRVHWAPSWVSSRAPCSTRGLGCKPGVSLIETVVRAVVLMSCARK	46200
FSSLEDSLPSSISPPIQTTSTINFNWCFKEEKNNDLKCKWKECPESCSSLFDL	69800
MPGLCIWYGVFWVVGFFSFFLLVLRVMGFLVCVFVRLVCVCFFRAFDICFFFS	34500
GPTIRHEMNLFHVYGRRNPHLRLMISLIYVWMRSWGVKEMSPRTLCLLLIRFF	48600
RIRDFMQFTLAATKTHYKLLPDILFKADPELCRRVSDANPSCALAALLTLYAH	77500
MCKVSCLGLFGGSFFFFGFGFYLLFYSSFHFSLPGWLVWILYFFFTFFGGSLR	45900
GYVYVSGFLALVIVVSTYFYMLSRLVLLVLPFLYLRSLSPAAYHVVHWTSFIP	61000
MRLFRECALFDTFMLYLNGDCMWVCLCLCFYLDFTVLGWFIIYGLVYCRVDDR	56000
AVEARFVTPQDPVLIQDDGSRLPPVPLEEAYKLNVLRREVIERAGSVAKAIEG	63700

Sequence	transcriptional activation domain activity
EQWECTKLVLFSHFTIELPIIWLFHPVAEALGMTTYQVPFPSLQKMAIQIFLF	39400
MDRVSIRFTLAISLADLGQAVLHMIGSKFSWLSCGLLLGISRFLCLFYIFLSV	57100
MSLLLCFRVLIFIYPLRVSFLVCSWLYILLFYMSLFHSSVICPHVKMNLFISL	43900
TIITNRGTIPNGLGRDIWTLQPDMITSFAYWFYHMEYAYFLNLVLLKASILFF	57800
QTWGVYKRTGGINMYIVSIWVNWFANSIIGILSWLYLWGTIETSFWFFFFLLL	75500
MDDDIAMFDSLATTQPIDIAASNQQNGEIAQLWDFNVDQFNMTPSNSSGSATI	76100
MPSAATRPCVQCAAAASRYNCPQCRASTCSAPCSKAHKLRAHGSDAAAGPSSA	47500
CHLLLVCLFYDFLTIEYYLYGSLLLLLLHDCFLLKICEFIVRPTCLPGLFHAK	60500
LLWFYFLFLFCIFCWWLRYASSLVPNICHIHVIHDLADAFMHIRFVLFISILS	72300
RRKEKKPRFAKKDKGSKEPVSKTCRIALRIKLCHGNICVMEVSLSVLASLVLH	53100
LCASSLIWMTVSRHHLPPTIANLPATTLLILTFISLLLSIFLQFLFWALLFFW	65300
MWEVLWAFSFLAGDIFVFFLSLALYIYPNHLVSPLLPGCVKPPVGMYWFLVFQ	44000
PEQSSSNAVSDAADQLANVKLEDGTNAAASSAPRTRKPRARKPKRKAAAANAS	12100
AAEKPAEEQPAETLVVEAKEVEEPKAAAKKGKKKAAKKEAEKVVEEQAVETPA	32500
ARVQVNFWFFLFVYYGFYNLTALIWITKVFNLYSLNWWPSMLGFPLTISLIAI	75700
MRDISTLTVCCPLLFFLNLLHFLCFSLCFSLTYFINCLTFLLFLYISFFIKLF	42800
MYISLFITYLYTYILELCFDFLTIFIIYFHFFSASCMLHSISPLLFICFSFFQ	57700
